These are literature values, as cited in article PMC9092467.

Data set [1] addresses His83 (UniProt position 83, FNEPAHTLYGQ). The experiment in a line: NMR.
Data set [2] deals with His32 (UniProt position 32, FGDVNHTNGNV). The experiment in a line: NMR.
Setting [3] is: apoprotein (no haem or haem analogue bound).
[4] abbreviates: holoprotein with gallium protoporphyrin IX, Ga(PPIX), bound.

Regarding “Haem acquisition system protein A (hemophore HasA) (Serratia marcescens)”, the pKa is 5.6 in data set [1] (setting [3]), 9.7 in data set [1] (setting [4]), 7.3 in data set [2] (setting [3]) and less than 4.8 in data set [2] (setting [4]).
